US20130209454A1

Experiments:
[1] = biological target: HIV-1 Env of strain 3365.v2.c2 (HIV-1); assay: cell-based or functional assay
[2] = biological target: HIV-1 Env of strain 6041.v3.c23 (HIV-1); assay: cell-based or functional assay
[3] = biological target: HIV-1 Env of strain 6240_08_TA5_4622 (HIV-1); assay: cell-based or functional assay
[4] = biological target: HIV-1 Env of strain 6545.v4.c1 (HIV-1); assay: cell-based or functional assay
[5] = biological target: HIV-1 Env of strain X1632_S2_B10 (HIV-1); assay: cell-based or functional assay
[6] = biological target: HIV-1 Env of strain X2088_c9 (HIV-1); assay: cell-based or functional assay
[7] = biological target: HIV-1 strain YU2 gp160 (gp120) (HIV-1) (UniProt P35961)
[8] = biological target: YU2 gp160 point mutant at 279gp120 (HIV-1) (UniProt P35961)
[9] = biological target: YU2 gp160 point mutant at 458gp120 (HIV-1) (UniProt P35961)
[10] = biological target: YU2 gp160 point mutant at 458gp120 (HIV-1) (UniProt P35961); assay: cell-based or functional assay
[11] = biological target: Env of HIV-1 strain 1012_11_TC21_3257 (HIV-1); assay: cell-based or functional assay
[12] = biological target: Env of HIV-1 strain 1054_07_TC4_1499 (HIV-1); assay: cell-based or functional assay
[13] = biological target: Env of HIV-1 strain 211-9 (HIV-1); assay: cell-based or functional assay
[14] = biological target: Env of HIV-1 strain 231965.c01 (HIV-1); assay: cell-based or functional assay
[15] = biological target: Env of HIV-1 strain 249M B10 (HIV-1); assay: cell-based or functional assay
[16] = biological target: Env of HIV-1 strain 263-8 (HIV-1); assay: cell-based or functional assay
[17] = biological target: Env of HIV-1 strain 6480.v4.c25 (HIV-1); assay: cell-based or functional assay
[18] = biological target: Env of HIV-1 strain C1080.c03 (HIV-1); assay: cell-based or functional assay
[19] = biological target: Env of HIV-1 strain CAP210.2.00.E8 (HIV-1); assay: cell-based or functional assay
[20] = biological target: Env of HIV-1 strain CNE53 (HIV-1); assay: cell-based or functional assay
[21] = biological target: Env of HIV-1 strain Ce0682_E4 (HIV-1); assay: cell-based or functional assay
[22] = biological target: Env of HIV-1 strain Ce1176_A3 (HIV-1); assay: cell-based or functional assay
[23] = biological target: Env of HIV-1 strain Ce2060_G9 (HIV-1); assay: cell-based or functional assay
[24] = biological target: Env of HIV-1 strain Du156.12 (HIV-1); assay: cell-based or functional assay
[25] = biological target: Env of HIV-1 strain Du172.17 (HIV-1); assay: cell-based or functional assay
[26] = biological target: Env of HIV-1 strain HIV-16055-2.3 (HIV-1); assay: cell-based or functional assay
[27] = biological target: Env of HIV-1 strain P0402_c2_11 (HIV-1); assay: cell-based or functional assay
[28] = biological target: Env of HIV-1 strain T251-18 (HIV-1); assay: cell-based or functional assay
[29] = biological target: Env of HIV-1 strain T255-34 (HIV-1); assay: cell-based or functional assay
[30] = biological target: Env of HIV-1 strain TRJO4551.58 (HIV-1); assay: cell-based or functional assay
[31] = biological target: Env of HIV-1 strain ZM135M.PL10a (HIV-1); assay: cell-based or functional assay
[32] = biological target: Env of HIV-1 strain ZM197M.PB7 (HIV-1); assay: cell-based or functional assay
[33] = biological target: Env of HIV-1 strain X1632_S2_B10 (HIV-1); assay: cell-based or functional assay

Binder | IC50, pseudovirus neutralization [1] [mg/L] | IC50, pseudovirus neutralization [2] [mg/L] | IC50, pseudovirus neutralization [3] [mg/L] | IC50, pseudovirus neutralization [4] [mg/L] | IC50, pseudovirus neutralization [6] [mg/L] | IC80 [11] [mg/L] | IC80 [12] [mg/L] | IC80 [13] [mg/L] | IC80 [14] [mg/L] | IC80 [15] [mg/L] | IC80 [16] [mg/L] | IC80 [17] [mg/L] | IC80 [18] [mg/L] | IC80 [19] [mg/L] | IC80 [20] [mg/L] | IC80 [21] [mg/L] | IC80 [22] [mg/L] | IC80 [23] [mg/L] | IC80 [24] [mg/L] | IC80 [25] [mg/L] | also measured
NIH45-46^G54W(HC), S28Y(LC) (antibody, V domains shown) VH: QVRLSQSGGQMKKPGESMRLSCRASGYEFLNCPINWIRLAPGRRPEWMGWLKPRWGAVNYARKFQGRVTMTRDVYSDTAFLELRSLTSDDTAVYFCTRGKYCTARDYYNWDFEHWGRGAPVTVSS VL: EIVLTQSPATLSLSPGETAIISCRTSQYGSLAWYQQRPGQAPRLVIYSGSTRAAGIPDRFSGSRWGADYNLSISNLESGDFGVYYCQQYEFFGQGTKVQVDI | 0.014 | 0.001 | 0.173 | 15.2 | 44.3 |  |  |  |  |  |  |  |  |  |  |  |  |  |  |  | IC50, pseudovirus neutralization [5]: 0.001 mg/L
NIH45-46^G54W IgG (antibody, name in Kabat numbering, V domains shown) VH: QVRLSQSGGQMKKPGESMRLSCRASGYEFLNCPINWIRLAPGRRPEWMGWLKPRWGAVNYARKFQGRVTMTRDVYSDTAFLELRSLTSDDTAVYFCTRGKYCTARDYYNWDFEHWGRGAPVTVSS VL: EIVLTQSPATLSLSPGETAIISCRTSQSGSLAWYQQRPGQAPRLVIYSGSTRAAGIPDRFSGSRWGADYNLSISNLESGDFGVYYCQQYEFFGQGTKVQVDI |  |  |  |  |  |  |  |  |  |  |  |  |  |  |  |  |  |  |  |  | IC50, pseudovirus neutralization (TZM-bl, luciferase) (G459D (HIV-1)): 0.01 mg/L; IC50, pseudovirus neutralization (TZM-bl, luciferase) [7]: 0.008 mg/L; IC50, pseudovirus neutralization (TZM-bl, luciferase) (N280D (HIV-1)): > 50 mg/L; IC50, pseudovirus neutralization (TZM-bl, luciferase) (N280Y (HIV-1)): > 50 mg/L; IC50, pseudovirus neutralization (TZM-bl, luciferase) (R456W (HIV-1)): 6 mg/L; IC50, pseudovirus neutralization (TZM-bl, luciferase) [8]: > 50 mg/L; IC50, pseudovirus neutralization (TZM-bl, luciferase) [9]: 18 mg/L; decrease of neutralization potency against YU2 [10]: > 1500 fold
NIH45-46^G54W (antibody, V domains shown) VH: QVRLSQSGGQMKKPGESMRLSCRASGYEFLNCPINWIRLAPGRRPEWMGWLKPRWGAVNYARKFQGRVTMTRDVYSDTAFLELRSLTSDDTAVYFCTRGKYCTARDYYNWDFEHWGRGAPVTVSS VL: EIVLTQSPATLSLSPGETAIISCRTSQSGSLAWYQQRPGQAPRLVIYSGSTRAAGIPDRFSGSRWGADYNLSISNLESGDFGVYYCQQYEFFGQGTKVQVDI | 0.01 | 0.001 | 0.11 | 18.9 | > 50 | 0.003 | 0.165 | > 50 | 0.035 | 0.019 | 0.025 | 0.021 | 0.91 | > 50 | 0.005 | 0.039 | 0.45 | 0.042 | 0.005 | 42.9 | IC80 [26]: 0.024 mg/L; IC80 [27]: 0.023 mg/L; IC80 [28]: 0.92 mg/L; IC80 [29]: 0.099 mg/L; IC80 [30]: 0.05 mg/L; IC80 [31]: 0.16 mg/L; IC80 [32]: 0.18 mg/L
NIH45-46^G54W(HC) S28Y(LC) (antibody, V domains shown) VH: QVRLSQSGGQMKKPGESMRLSCRASGYEFLNCPINWIRLAPGRRPEWMGWLKPRWGAVNYARKFQGRVTMTRDVYSDTAFLELRSLTSDDTAVYFCTRGKYCTARDYYNWDFEHWGRGAPVTVSS VL: EIVLTQSPATLSLSPGETAIISCRTSQYGSLAWYQQRPGQAPRLVIYSGSTRAAGIPDRFSGSRWGADYNLSISNLESGDFGVYYCQQYEFFGQGTKVQVDI |  |  |  |  |  | 0.008 | 0.515 | 0.898 | 0.035 | 0.017 | 0.067 | 0.058 | 0.589 | 9.05 | 0.039 | 0.031 | 0.467 | 0.062 | 0.024 | 0.125 | IC80 [26]: 0.017 mg/L; IC80 [27]: 0.042 mg/L; IC80 [28]: 1.43 mg/L; IC80 [29]: 0.105 mg/L; IC80 [30]: 0.02 mg/L; IC80 [33]: 0.007 mg/L; IC80 [31]: 0.163 mg/L; IC80 [32]: 0.274 mg/L
